In a protein production outcome set (Wang et al. 2014):

Assay: label from the status in PepcDB records
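Note: failed if final PepcDB status was selected cloned or expressed and not failed if soluble or beyond.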

Sequence | protein production
TAGKKAAMDRLSTQEGIISALAIDQRGALKKMIKALDVEPTDAQIETFKELVSKELTPYASAILLDPEYGLPAAKARDTEAGLLLAYEKTGYDATTPGRLPDLLADWSVLRLKEEGADAIKFLLYYDVDEDPEINHQKHVFIERLGSECAEEDLPFYLELVSYDAQIADATSLEYAKVKPHKVNEMMKEFSKPQYKVDVLKVEVPVNMNFVEGFAPAETAYTKEEAANYFLEQSQATDLPFIFLSAGVSTELFQETLRFAKEAGSTFNGVLCGRATWKNGVKPFVEAGETAACDWLKTEGRENIESLNEVIAATASSWHAKVQVNE | failed
MNEIITWILIVICLTQSAVFSGLTIGIFGLGRLRLEIEAEANNKNAIKILQVRRDSNFLLTTLLWGNVGVNVLIAQLTDSVMAGTFAFLFSTFGITCFGEIMPQAYFSRNALDIGAKLTPLVRFYQMLLYPVAKPTALVLDWWLGREKLELFREQAMRIMLEKHIESGKTDIGTFEGIGALNFLSIDDVSISDEGSIIDSRSIISLPVENNRPVFPPFNREPSDPFLQKIEASGKKWVIITSPENEPVMVLDADGFLRDAVYKKGPFLPLIYCHFPVVVKSPETRLEKVIRQFKVYPQYPEDDVIDQDLILYWGEEKRIITGSDILGRLLRGIVVECELGSGCEIPVPPSQPGFVRRTAFRRGKKKEIENLKRK | not failed
MFFKQFYDKHLSQASYLIGCQKTGEAMIIDPIRDLSSYIRVADEEGLTITHAAETHIHADFASGIRDVAIKLNASIYVSGESDDTLGYKNMPNQTHFVQHNDDIYVGNIKLKVLHTPGHTPESISFLLTDEGAGAQVPMGLFSGDFIFVGDIGRPDLLEKAVKVEGSSEIGAKQMFKSIESIKDLPNYIQIWPGHGAGSPCGKSLGAIPTSTLGYEKQTNWAFSENNEATFIDKLISDQPAPPHHFAQMKKINQFGMNLYQPYTVYPATNTNRLTFDLRSKEAYHGGHIEGTINIPYDKNFINQIGWYLNYDQEINLIGEYHLVSKATHTLQLIGYDDVAGYQLPQSKIQTRSIHSEDITGNESHILDVRNDNEWNNGHLSQAVHVPHGKLLETDLPFNRNDVIYVHCQSGIRSSIAIGILEHKGYHNIINVNEGYKDIHLSLEHHHHHH | failed
MRDALLGALDAGAVCVNVDLAHAGQQAKLEPDTPYGDALGVGAGRNWAHVNSIAYDAKDDSIILSSRHQGIVKIGRDKQVKWILAPSKGWNKQLASKLLKPVDDHGKPLTCDENGKCKDTDFDFTYTQHTAWLSSKGTLTVFDNGDGRGLEQPALPTMKYSRFVEYKIDEKKGTVQQVWEYGKERGYDFYSPITSVVEYQKDRDTMFGFGGSINLFDVGKPTVGKLNEIDYKTKEVKVEIDVLSDKPNQTHYRALLVHPTQMFKLEHHHHHH | not failed
MENLASPPDISFVIAAYNAADTIEAAVQSALDQRGVTLEVIVVDDRSADDTITFVEAIAAIDPRVRLLALEENRGPGGARNAGIEAATGRWIAVLDSDDVIRPERSACMMCRAEAANAAVAVDNLDVVYTDGRPMETMFPEEFLEERAVLTLEDFISSNILFRSTFNFGYMKPMFRRDFLNNEGLRFREDIRIGEDYILLASALAAGGLCVIEPKPGYIYNIREGSISRVLELHHVEAMMRADQEFLSHYTLLPAAMDAQQARARSLQLAHNFLTLVENIKRRSVLGALKTTIRDPAVLGHLRMPIAVRLRRLRDAMFAPAAKIQGLEHHHHHH | not failed
MTFNALRPVASKVIDPLADFFIRYEVSPDTVSIVSLICAFFAGLSFYYSPAYQELALLAGILVVFNSLFDALDGVIARKSNRATPRGDFLDHVIDRYSDVFIICSIFFAGYVSWQIGVAAIVGVLLTSYLGTQAQALNLGRYYGGIMGRADRLVVIILAAFANSVYPASIAGFPILGWAVILIAVTSHITAIQRIMYIWRRLD | failed
LNSAPTPRDVVANAPAPVQAAVAGAQEYAAQAGLNTEELAVDALYNAIKVRLAGTGLGIPPQIEAFYQANRTNFNGFYMANRGAIDFIFSM | not failed
MSTILSLAPQNVWKHFYSLTQVPRPSGYLKKVQEFLLNFGKSVGVESFQDEAGNIIYRKPATPGMENRKKVILQAHMDMVPQKNNDTVHDFENDPIETYIDGDWVKAKGTTLGADDGMGVAAIMAIMEDKTLKHGPLEALITADEETGMFGAFGLKPGTVDGDILLNLDSEEEGELYIGCAGGEDLTAVLEYKEVETDPADIALKVTLKGLRGGHSGLEINEGRANANKLMARFMNQVITYDEACLVSWQGGNMRNAIPRECEVVITVPAEEEADVLEFVQECEALWNEEYHVHETPISFKAERVELPAMMVPDEIKDNLVDAIYACQNGVMRMIPTIPDTVETSSNLAIVSIGGGKAEIKILARSSRDSMKDYLNTALESCFSMAGMEVTRSGGYSGWEPNVDSPILKAMKESYKAQFGTEPAVKVIHAGLECGIIGAVVPGLDMISFGPTLRSPHSPDERCFIPSVGKFYDFVVATLENTPVKE | failed
MQDSLGIMIKKANNALARDSDHYAKSLGLTGMQISTINFIANNEQHHDLFQRDLELEFNIRKATCSSLVSKMEAADLLIRVPAKDDGRYKRLLLTPKARQLATKIERFFETSEQRMATILGVNTAETYEALRQIAVAFSTPTHAPENWY | failed
MRLITHNMLSCNIKGVTSGFPLRIEAGNVIEKEVDFNPDFIRHMFAKIEWKALVEGARSMGYAELPEESPDAAVLKSDEPFLKKLHHALLELHLEEGALVCPETGRKFPVNKGIPNMLLHEDEV | failed
MLPAEYNVLVDYTGASTFTTFFFLLFFYVLDCYNVGHEDVRDSIARVSVASVLGIIFTGFTFYSFEHWRFERTTFVVLLLLVVGMTLLWRMVYHRFGQRFTTRPRVVLVGVDRAGRVRKLLNEGMPEAEILGYVGEGDVDPDAGPCLGAPYEPVEIARRYGATMLVMLPDAPVDEDIARDLLDAKLRGLMVVDIRTLYEHVAKRIPVDQIRDEWLLTEDGFNLNTQGSVRRLKRAFDVIVSLSLLITTAPIMLVAAIAIRMESPGPVIYRQKRVGINEQEFMVLKFRSMRTDAEKDGAVWATKGDSRVTRVGRFIRKVRIDELPQLWNVLRGDMSMIGPRPERMEFVRQLEKVIPYFYVRHSVKPGITGWAQVCYPYGASVEDARYKLEYDLYYIKNMSPLLDIQIVLKTVGVILFPKGAR | failed
MTRLTRFAVAPLHSMTRRLADVASARVAPDLVVTGARVLSTYSERIHANREVWITGGRVAAVKPAGTARKAWSGVALYDAAGAIIAPGLVDPHIHIESSMVTACAYAEAALLNGTTTIFCDSHEIGNVMDVAGVEAMLEDARQAPLSIFLTVPSTVPATSAELETAGGDLTPDKIAGLFDRWPEAVALGEKMDFVPVTMGDERSHAILAAALKRGRPVSGHVYGREFVAAYAASGVTDTHEAIDRDIADDLLDAGVWVFLRGGPPTTPWHSLPQAIRTITELGASHKRTAVCTDDRDADDLLLFGLDWVVREAVKAGMSPEQAWSMGSLHGATRFGMEGDIGGLGGGRRADLVLMDDQLKPQCTWYGGELVVEHGKITPRLDQALSQRYQYPKAAYATVKLPEKVKLTPELPAKACTVNAIKTALPGITLIHEKVAIEPAKDWPTLFARYGLCFVTVVERHGKSAGNVAYGLLKDFGLKRGAVASSVGHDSHNIIVAGTNEPDMQVAIAAIKEHQGAVCVVADGKVRALVPLPIAGLLSDKRVTEVAEEVKVLKKEWAEAGCTIPYMGFNLIPLSVIPEIRITDKGLVLVPQMELAPLFE | failed
MPQITLVFISLSGNTLSFVKRLSLYLADNYDYHVKQINIKDLKHETFPVKEEFVAILPTYLEGGNGVDSGDVEILTTPLGEFIAAHGNAQRCLGIIGSGNKNFNHQYCLTAKQYAKRFGFPLLGDFELRGTPDDISRLAQVIMEASSRHSSNDTQTL | failed
MQENPSSSPFERRMESYQTQDSNDLHQLWRPREEDLEKLYRVPLGLTNEQLVEKLQLFSGEGEEKTLFVWVNRDLLGYRFLFWLTGMVLKEKQDGDVEHANKLEIIRDWVIESVVKIDRFLVRRVKQAEEKLKSLIQDYDSFKTSPEKKLLQITGQSEMDFVCLWVVVYTAVIAWKLRAAQTESSATHPSSIVVSECRHLLEQKDVFQRKTPKGLKLVAQLFDRSIEELNPRLKTLGDTDIREIGRLMTILELLPADPYRLLCRIACNLYDGAILLQYGVENYQIGSVRFGLDPYSFDSESKIPKLNNPFITIGK | failed
MDAKARNCLLQHREALEKDIKTSYIMDHMISDGFLTISEEEKVRNEPTQQQRAAMLIKMILKKDNDSYVSFYNALLHEGYKDLAALLHDGIPVVSSSSGKDSVSGITSYVRTVLCEGGVPQRPVVFVTRKKLVNAIQQKLSKLKGEPGWVTIHGMAGCGKSVLAAEAVRDHSLLEGCFPGGVHWVSVGKQDKSGLLMKLQNLCTRLDQDESFSQRLPLNIEEAKDRLRILMLRKHPRSLLILDDVWDSWVLKAFDSQCQILLTTRDKSVTDSVMGPKYVVPVESSLGKEKGLEILSLFVNMKKADLPEQAHSIIKECKGSPLVVSLIGALLRDFPNRWEYYLKQLQNKQFKRIRKSSSYDYEALDEAMSISVEMLREDIKDYYTDLSILQKDVKVPTKVLCILWDMETEEVEDILQEFVNKSLLFCDRNGKSFRYYLHDLQVDFLTEKNCSQLQDLHKKIITQFQRYHQPHTLSPDQEDCMYWYNFLAYHMASAKMHKELCALMFSLDWIKAKTELVGPAHLIHEFVEYRHILDEKDCAVSENFQEFLSLNGHLLGRQPFPNIVQLGLCEPETSEVYQQAKLQAKQEVDNGMLYLEWINKKNITNLSRLVVRPHTDAVYHACFSEDGQRIASCGADKTLQVFKAETGEKLLEIKAHEDEVLCCAFSTDDRFIATCSVDKKVKIWNSMTGELVHTYDEHSEQVNCCHFTNSSHHLLLATGSSDCFLKLWDLNQKECRNTMFGHTNSVNHCRFSPDDKLLASCSADGTLKLWDATSANERKSINVKQFFLNLEDPQEDMEVIVKCCSWSADGARIMVAAKNKIFLFDIHTSGLLGEIHTGHHSTIQYCDFSPQNHLAVVALSQYCVELWNTDSRSKVADCRGHLSWVHGVMFSPDGSSFLTSSDDQTIRLWETKKVCKNSAVMLKQEVDVVFQENEVMVLAVDHIRRLQLINGRTGQIDYLTEAQVSCCCLSPHLQYIAFGDENGAIEILELVNNRIFQSRFQHKKTVWHIQFTADEKTLISSSDDAEIQVWNWQLDKCIFLRGHQETVKDFRLLKNSRLLSWSFDGTVKVWNIITGNKEKDFVCHQGTVLSCDISHDATKFSSTSADKTAKIWSFDLLLPLHELRGHNGCVRCSAFSVDSTLLATGDDNGEIRIWNVSNGELLHLCAPLSEEGAATHGGWVTDLCFSPDGKMLISAGGYIKWWNVVTGESSQTFYTNGTNLKKIHVSPDFKTYVTVDNLGILYILQTLE | failed
MVNEGLIPSLEDEVKRRGVINQLRKIVVRWVKNVAWQHRLPQNQIDATNATILPYGSYGLGVYGSESDIDALCIGPFFASIADFFISLRDMLKSRREVSELHCVKDAKVPLIRFKFDGILVDLPYAQLRVLSIPNNVDVLNPFFLRDIDETSWKILSGVRANKCILQLVPSLELFQSLLRCVKLWAKRRGVYGNLNGFLGGVHMAILAAFVCGYQPNATLSSLLANFFYTFAHWQWPTPVVLLEDTYPSTGAPPGLMPIQLPCGSHQYCNSTITRSTFYKIVAEFLLGHNLTKDYLKLNFSWKDLFELYPYANTYTWFTKIHLSAANQEDLSDWVGWVKSRFRCLLIKIEEVYGICDPNPTEYVETYTKQPNIVFYWGLQLRTINVSDIESVKIDFLKNVNSGSFRGTVGRIQLTLVKASQLPKNGECGSNNRSKKVTKTCWRIREDKQCNNVPVYSKHLPGYVVGYQKMVNREADGMEVKC | failed
